For assay [1], the target named is T1, Zanolimumab mutant FR1.
T1 construct: also called Zano FR1
Kind of assay: flow cytometry, % parent (FITC), CHO cells expressing zanolimumab mutant FR1.
Procedure: (§1) FACS was performed according to standard protocols. Briefly, cells were assayed in PBS with 0.5% BSA and 2 mM EDTA. […] Following this, cells were incubated with a secondary anti-mouse FITC antibody for 30 mins at 4° C. FITC readout was measured by FACS on a benchtop flow cytometer.

Assay [2] concerns the target T2, 3A6.
T2 construct: also called 3A6 antibody (containing VH4-34 antigen); 3A6 (VH4-34 antigen)
Kind of assay: flow cytometry, EC50 of % parent (FITC), CHO cells overexpressing surface 3A6. Background: A flow cytometer gives signals particle by particle.
Procedure: as §1

In assay [3] the target is tabalumab. Kind of assay: flow cytometry, EC50 of % parent (FITC), CHO cells overexpressing surface tabalumab (Taba).
Chain of tabalumab (VH, as listed by the source, chain 1 of 2): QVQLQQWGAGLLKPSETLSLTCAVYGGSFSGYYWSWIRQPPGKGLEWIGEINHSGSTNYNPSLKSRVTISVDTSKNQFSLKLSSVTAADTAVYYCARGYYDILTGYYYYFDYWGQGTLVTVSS
Chain of tabalumab (VL, as listed by the source, chain 2 of 2): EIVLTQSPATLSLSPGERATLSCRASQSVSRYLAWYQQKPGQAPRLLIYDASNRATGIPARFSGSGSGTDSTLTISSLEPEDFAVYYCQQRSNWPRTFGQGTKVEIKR
Procedure: as §1
The target in assay [4] is T3, zanolimumab.
T3 construct: VH4-34-containing antibody used as the antigen, overexpressed on the surface of CHO cells; also called Zano.hIgG1
T3 sequence (VH, as listed by the source, chain 1 of 2): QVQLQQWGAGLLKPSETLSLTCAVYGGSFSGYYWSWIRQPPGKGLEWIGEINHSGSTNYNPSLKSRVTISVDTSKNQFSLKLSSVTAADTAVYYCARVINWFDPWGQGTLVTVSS
T3 sequence (VL, as listed by the source, chain 2 of 2): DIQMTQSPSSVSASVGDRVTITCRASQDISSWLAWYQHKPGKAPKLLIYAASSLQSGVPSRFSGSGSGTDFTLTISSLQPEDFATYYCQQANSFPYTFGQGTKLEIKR
Nature of the assay: flow cytometry, EC50 of % parent (FITC), CHO cells overexpressing surface zanolimumab (Zano); curve in FIG. 1A reaches only about 45 % parent.
Procedure: as §1

The target in assay [5] is T4, 3A6 mutant FR1.
T4 construct: also called 3A6 FR1; 3A6-FR1 (VH4-34 FR1 mutant)
T4 sequence (VH, as listed by the source, chain 1 of 2): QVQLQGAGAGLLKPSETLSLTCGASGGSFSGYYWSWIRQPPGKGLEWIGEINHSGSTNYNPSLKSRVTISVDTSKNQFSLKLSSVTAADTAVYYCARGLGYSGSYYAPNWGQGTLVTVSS
T4 sequence (VL, as listed by the source, chain 2 of 2): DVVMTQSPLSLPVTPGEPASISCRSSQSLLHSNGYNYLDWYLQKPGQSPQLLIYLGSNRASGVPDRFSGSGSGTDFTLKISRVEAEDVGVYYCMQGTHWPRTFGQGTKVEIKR
Nature of the assay: flow cytometry, % parent (FITC), CHO cells expressing 3A6 mutant FR1.
Procedure: as §1

Assay [6] has as its target T5, Tabalumab mutant FR1.
T5 construct: also called Taba FR1
Nature of the assay: flow cytometry, % parent (FITC), CHO cells expressing tabalumab mutant FR1.
Procedure: (§2) For FACS evaluation, cells were assayed in PBS with 0.5% BSA and 2 mM EDTA. […] Cells were incubated with a secondary anti-mouse FITC antibody for 20 mins at 4° C. FITC readout was measured by FACS.

For assay [7], the target named is T1, Zanolimumab mutant FR1. Kind of assay: flow cytometry, % parent (FITC), CHO cells expressing zanolimumab mutant FR1. The source holds these as a separate data set.
Procedure: as §2
In assay [8] the target is T2, 3A6. Nature of the assay: flow cytometry, EC50 of % parent (FITC), CHO cells overexpressing surface 3A6. The source holds these as a separate data set.
T2 sequence (VH, as listed by the source, chain 1 of 2): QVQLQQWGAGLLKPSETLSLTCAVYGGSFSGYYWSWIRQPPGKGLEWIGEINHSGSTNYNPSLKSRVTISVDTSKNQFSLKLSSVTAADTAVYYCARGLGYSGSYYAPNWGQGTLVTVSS
Procedure: as §1
For assay [9], the target named is T2, 3A6. The assay is described as above. This is another data set of the same source.
Procedure: as §2
In assay [10] the target is T6, IGM-55.5.
T6 construct: Cold agglutinin antibody coated on the plate in the ELISA
Nature of the assay: ELISA on plate-coated IGM-55.5 (1 ug/ml), detection with HRP goat anti-mouse IgG. A general note: In an ELISA, binding on a coated surface is turned into a signal by an enzyme label.
Procedure: Plate was washed 3× with TBS+0.1% Tween 20. […] A secondary antibody (HRP-conjugated goat anti-mouse IgG) was prepared at 1:5000 dilution in blocking buffer and added to the plate with 1 hr incubation RT. TMB ELISA substrate was added and incubated for 15 mins at RT in the dark, before adding the stop solution. The absorbance was read at 450 nm.

For assay [11], the target named is T7, antibodies containing VH4-34 endogenously expressed by cell line OCI-Ly3.
T7 construct: Whole, on cells; also called VH4-34-expressing cell line OCI-Ly3
Nature of the assay: flow cytometry, EC50 of % parent (PE), OCI-Ly3 cells endogenously expressing VH4-34.
Procedure: FACS was performed according to standard protocols. Briefly, cells were assayed in PBS with 0.5% BSA and 2 mM EDTA. Live dead staining was performed with a live dead cell dye for 15 minutes at 4° C. […] Following this, cells were incubated with a secondary PE goat anti-mouse IgG for 30 mins at 4° C. and PE readout was measured.

The target of assay [12] is tabalumab. Nature of the assay: flow cytometry, EC50 of % parent (FITC), CHO cells overexpressing surface tabalumab (TABA).
Procedure: as §1
Assay [13] concerns the target tabalumab. Nature of the assay: flow cytometry, EC50 of % parent (FITC), CHO cells overexpressing surface tabalumab (Taba). The source holds these as a separate data set.
Procedure: as §2
Assay [14] concerns the target T3, zanolimumab. Kind of assay: flow cytometry, EC50 of % parent (FITC), CHO cells overexpressing surface zanolimumab (ZANO).
Procedure: as §1
Assay [15] addresses T3, zanolimumab. Kind of assay: flow cytometry, EC50 of % parent (FITC), CHO cells overexpressing surface zanolimumab (Zano).
Procedure: as §2
For assay [16], the target named is T5, Tabalumab mutant FR1. Nature of the assay: flow cytometry, % parent (FITC), CHO cells expressing tabalumab mutant FR1. The source holds these as a separate data set.
T5 sequence (VH, as listed by the source, chain 1 of 2): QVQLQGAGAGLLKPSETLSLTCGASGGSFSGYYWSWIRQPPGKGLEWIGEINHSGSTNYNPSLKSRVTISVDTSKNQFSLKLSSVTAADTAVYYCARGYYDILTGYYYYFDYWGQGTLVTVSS
Procedure: as §1
Assay [17] concerns the target T1, Zanolimumab mutant FR1. Kind of assay: flow cytometry, % parent (FITC), CHO cells expressing zanolimumab mutant FR1. The source holds these as a separate data set.
Procedure: as §1

Where two headings read alike, the source gives them in different places.

T1 sequence (VH, as listed by the source, chain 1 of 2): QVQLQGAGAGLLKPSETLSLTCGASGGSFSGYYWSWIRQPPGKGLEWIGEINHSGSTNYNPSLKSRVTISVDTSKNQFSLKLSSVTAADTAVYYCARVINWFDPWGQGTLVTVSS

B1: D011-1E11p.IgG2a (antibody, V domains shown)
VH: EVQLQQSGPELVKPGASMKISCKASGYSFTGSTMNWVKQSPGKNLEWIGLINPYNGGTSYNQKFEGKATLTVDKSSSTAYMELLSLTSVDSAVYYCASRGKNGYDGRDFDCWGQGTSVTVSS
VL: DIVLTQSPLSLPVNIGDQASISCKSTKSLLNSGGFTYLDWYLQKPGQSPQLLIYLVSNRFSGVPDRFSGSGSGTDFTLKISRVEAEDLGVYYCFQSNYFPFTFGSGTKLEIKR
Consider B1, for which the binding result in assay [1] is “no binding (tested: Log M about -7.2 (about 7e-8 M))”. Further, the EC50 in assay [2] was found to be 1.52 nM; in [3], 0.0823 nM; in assay [4], 3.49 nM.

B2: D011-7016.IgG2a (antibody)
heavy: EVQLVESGPSLVKPSQTLSLICSVTGDSITSGYWNWVRKFPGNKLEYMGYISYSGSAHYNPSLKSRISITRDTSKNQYYLQLNSMTTEDTATYYCASYSFAYWGQGTLVTVSAASTKGPSVFPLAPSSKSTSGGTAALGCLVKDYFPEPVTVSWNSGALTSGVHTFPAVLQSSGLYSLSSVVTVPSSSLGTQTYICNVNHKPSNTKVDKKVEPKSCDKTHTCPPCPAPELLGGPSVFIFPPKIKDVLMISLSPIVTCVVVDVSEDDPDVQISWFVNNVEVHTAQTQTHREDYNSTLRVVSALPIQHQDWMSGKEFKCKVNNKDLPAPIERTISKPKGSVRAPQVYVLPPPEEEMTKKQVTLTCMVTDFMPEDIYVEWTNNGKTELNYKNTEPVLDSDGSYFMYSKLRVEKKNWVERNSYSCSVVHEGLHNHHTTKSFSRTPGK
light: DIVMTQSPATLSVTPGDSVSLSCRANQSIDNNLHWYQQRSHESPRLLINYASQSISGIPSRFSGSGSGTDFTLSISSVETEDFGMYFCQQSYGWPYTFGGGTKLEIKRTVAAPSVFIFPPSDEQLKSGTASVVCLLNNFYPREAKVQWKVDNALQSGNSQESVTEQDSKDSTYSLSSTLTLSKADYEKHKVYACEVTHQGLSSPVTKSFNRGEC
notes: also called [4]
For the molecule B2, the binding result is “no binding (tested: Log M about -7.2 (about 7e-8 M))” in assay [5], “no binding (tested: Log M about -8.1 (about 8e-9 M))” in assay [6] and “no binding (tested: Log M about -8.1 (about 8e-9 M))” in assay [7]. In addition, the EC50 in assay [8] is 0.0258 nM; in assay [9], 0.00751 nM; in assay [11], 0.0194 nM; in [12], 0.0313 nM; in assay [13], 0.00558 nM; in assay [14] it was 0.0164 nM. Further, the EC50 in assay [15] was found to be 0.00926 nM. For the same molecule, in assay [10], the “EC50 (read off the curve)” value is around 0.0002 nM.

B3: D011-6039.IgG2a (antibody, V domains shown)
VH: EVMLVESGGGLVQPGGSLKLSCAASGFTFSSYGMSWVRQTPDKRLELVATINSNGVNTYYPDSVKGRFTISRDNAKNTLYLQMSSLKSEDTAMYYCARVPFDYWGQGTSLTVSS
VL: DIVMTQSPAIMSASLGEKVTMSCRASSSVDYIYWYQQKSDASPKLWIYYTSTLAPGVPARFSGSGSGNSYSLTISSMEGEDAATYYCQQFTSSPWTFGGGTRLEIKR
Turning to B3, the binding result in assay [5], in assay [16] and in assay [17] was “no binding (tested: Log M about -7.2 (about 7e-8 M))” each time. Further, the EC50 in [8] is 8.96 nM; in [11], 0.273 nM; in assay [12] it was 0.0444 nM; in [14], 10.4 nM.

By EC50 is commonly meant the concentration that produces a half-maximal response. Broadly, the EC50 (read off the curve) is the concentration that produces a half-maximal response. Lower therefore signals greater potency.

Source of the values: patent US20260274993A1 (HUMMINGBIRD BIOSCIENCE PTE, published 2026).
